# Experimental data reported in patent publication US20140044713A1 (KONINKLIJKE NEDERLANDSE AKADEMIE VAN WETENSCHAPPEN, published 2014).
# B1: FBXO3 (other, not shown: small tags and cut ends)
# chain: MAAMETETAPLTLESLPTDPLLLILSFLDYRDLINCCYVSRRLSQLSSHDPLWRRHCKKYWLISEEEKTQKNQCWKSLFIDTYSDVGRYIDHYAAIKKAWDDLKKYLEPRCPRMVLSLKEGAREEDLDAVEAQIGCKLPDDYRCSYRIHNGQKLVVPGLLGSMALSNHYRSEDLLDVDTAAGGFQQRQGLKYCLPLTFCIHTGLSQYIAVEAAEGRNKNEVFYQCPDQMARNPAAIDMFIIGATFTDWFTSYVKNVVSGGFPIIRDQIFRYVHDPECVATTGDITVSVSTSFLPELSSVHPPHYFFTYRIRIEMSKDALPEKACQLDSRYWRITNAKGDVEEVQGPGVVGEFPIISPGRVYEYTSCTTFSTTSGYMEGYYTFHFLYFKDKIFNVAIPRFHMACPTFRVSIARLEMGPDEYEEMEEEEEEEEEEDEDDDSADMDESDEDDEEERRRRVFDVPIRRRRCSRLF
# notes: TAP-MS bait
# B2: EMI1 (other, not shown: small tags and cut ends)
# chain: MSRRPCSCALRPPRCSCSASPSAVTAAGRPRPSDSCKEESSTLSVKMKCDFNCNHVHSGLKLVKPDDIGRLVSYTPAYLEGSCKDCIKDYERLSCIGSPIVSPRIVQLETESKRLHNKENQHVQQTLNSTNEIEALETSRLYEDSGYSSFSLQSGLSEHEEGSLLEENFGDSLQSCLLQIQSPDQYPNKNLLPVLHFEKVVCSTLKKNAKRNPKVDREMLKEIIARGNFRLQNIIGRKMGLECVDILSELFRRGLRHVLATILAQLSDMDLINVSKVSTTWKKILEDDKGAFQLYSKAIQRVTENNNKFSPHASTREYVMFRTPLASVQKSAAQTSLKKDAQTKLSNQGDQKGSTYSRHNEFSEVAKTLKKNESLKACIRCNSPAKYDCYLQRATCKREGCGFDYCTKCLCNYHTTKDCSDGKLLKASCKIGPLPGTKKSKKNLRRL
# notes: TAP-MS bait
# B3: FBXO31 (other, not shown: small tags and cut ends)
# chain: MAVCARLCGVGPSRGCRRRQQRRGPAETAAADSEPDTDPEEERIEASAGVGGGLCAGPSPPPPRCSLLELPPELLVEIFASLPGTDLPSLAQVCTKFRRILHTDTIWRRRCREEYGVCENLRKLEITGVSCRDVYAKLLHRYRHILGLWQPDIGPYGGLLNVVVDGLFIIGWMYLPPHDPHVDDPMRFKPLFRIHLMERKAATVECMYGHKGPHHGHIQIVKKDEFSTKCNQTDHHRMSGGRQEEFRTWLREEWGRTLEDIFHEHMQELILMKFIYTSQYDNCLTYRRIYLPPSRPDDLIKPGLFKGTYGSHGLEIVMLSFHGRRARGTKITGDPNIPAGQQTVEIDLRHRIQLPDLENQRNFNELSRIVLEVRERVRQEQQEGGHEAGEGRGRQGPRESQPSPAQPRAEAPSKGPDGTPGEDGGEPGDAVAAAEQPAQCGQGQPFVLPVGVSSRNEDYPRTCRMCFYGTGLIAGHGFTSPERTPGVFILFDEDRFGFVWLELKSFSLYSRVQATFRNADAPSPQAFDEMLKNIQSLTS
# notes: TAP-MS bait
# B4: FBXL2 (other, not shown: small tags and cut ends)
# chain: MVFSNNDEGLINKKLPKELLLRIFSFLDIVTLCRCAQISKAWNILALDGSNWQRIDLFNFQTDVEGRVVENISKRCGGFLRKLSLRGCIGVGDSSLKTFAQNCRNIEHLNLNGCTKITDSTCYSLSRFCSKLKHLDLTSCVSITNSSLKGISEGCRNLEYLNLSWCDQITKDGIEALVRGCRGLKALLLRGCTQLEDEALKHIQNYCHELVSLNLQSCSRITDEGVVQICRGCHRLQALCLSGCSNLTDASLTALGLNCPRLQILEAARCSHLTDAGFTLLARNCHELEKMDLEECILITDSTLIQLSIHCPKLQALSLSHCELITDDGILHLSNSTCGHERLRVLELDNCLLITDVALEHLENCRGLERLELYDCQQVTRAGIKRMRAQLPHVKVHAYFAPVTPPTAVAGSGQRLCRCCVIL
# notes: TAP-MS bait
# Target: T1, Lgr4 (endogenous, or expression construct whose tag is not stated) (human, UniProt Q9BXB1 25-951)
# T1 construct: whole, on cells; Endogenous protein of HEK293T / LS174T cells in TAP-MS; also called endogenous Lgr4
# Test: TAP + mass spectrometry, HEK293 cells
row,binding result,Binder
1,no binding,B1
2,no binding,B2
3,no binding,B3
4,no binding,B4

# Target: T2, LRP5 (endogenous) (human, UniProt O75197 32-1615)
# T2 construct: whole, on cells
# Test: TAP + mass spectrometry, HEK293 cells
# T2 sequence (O75197 32-1615): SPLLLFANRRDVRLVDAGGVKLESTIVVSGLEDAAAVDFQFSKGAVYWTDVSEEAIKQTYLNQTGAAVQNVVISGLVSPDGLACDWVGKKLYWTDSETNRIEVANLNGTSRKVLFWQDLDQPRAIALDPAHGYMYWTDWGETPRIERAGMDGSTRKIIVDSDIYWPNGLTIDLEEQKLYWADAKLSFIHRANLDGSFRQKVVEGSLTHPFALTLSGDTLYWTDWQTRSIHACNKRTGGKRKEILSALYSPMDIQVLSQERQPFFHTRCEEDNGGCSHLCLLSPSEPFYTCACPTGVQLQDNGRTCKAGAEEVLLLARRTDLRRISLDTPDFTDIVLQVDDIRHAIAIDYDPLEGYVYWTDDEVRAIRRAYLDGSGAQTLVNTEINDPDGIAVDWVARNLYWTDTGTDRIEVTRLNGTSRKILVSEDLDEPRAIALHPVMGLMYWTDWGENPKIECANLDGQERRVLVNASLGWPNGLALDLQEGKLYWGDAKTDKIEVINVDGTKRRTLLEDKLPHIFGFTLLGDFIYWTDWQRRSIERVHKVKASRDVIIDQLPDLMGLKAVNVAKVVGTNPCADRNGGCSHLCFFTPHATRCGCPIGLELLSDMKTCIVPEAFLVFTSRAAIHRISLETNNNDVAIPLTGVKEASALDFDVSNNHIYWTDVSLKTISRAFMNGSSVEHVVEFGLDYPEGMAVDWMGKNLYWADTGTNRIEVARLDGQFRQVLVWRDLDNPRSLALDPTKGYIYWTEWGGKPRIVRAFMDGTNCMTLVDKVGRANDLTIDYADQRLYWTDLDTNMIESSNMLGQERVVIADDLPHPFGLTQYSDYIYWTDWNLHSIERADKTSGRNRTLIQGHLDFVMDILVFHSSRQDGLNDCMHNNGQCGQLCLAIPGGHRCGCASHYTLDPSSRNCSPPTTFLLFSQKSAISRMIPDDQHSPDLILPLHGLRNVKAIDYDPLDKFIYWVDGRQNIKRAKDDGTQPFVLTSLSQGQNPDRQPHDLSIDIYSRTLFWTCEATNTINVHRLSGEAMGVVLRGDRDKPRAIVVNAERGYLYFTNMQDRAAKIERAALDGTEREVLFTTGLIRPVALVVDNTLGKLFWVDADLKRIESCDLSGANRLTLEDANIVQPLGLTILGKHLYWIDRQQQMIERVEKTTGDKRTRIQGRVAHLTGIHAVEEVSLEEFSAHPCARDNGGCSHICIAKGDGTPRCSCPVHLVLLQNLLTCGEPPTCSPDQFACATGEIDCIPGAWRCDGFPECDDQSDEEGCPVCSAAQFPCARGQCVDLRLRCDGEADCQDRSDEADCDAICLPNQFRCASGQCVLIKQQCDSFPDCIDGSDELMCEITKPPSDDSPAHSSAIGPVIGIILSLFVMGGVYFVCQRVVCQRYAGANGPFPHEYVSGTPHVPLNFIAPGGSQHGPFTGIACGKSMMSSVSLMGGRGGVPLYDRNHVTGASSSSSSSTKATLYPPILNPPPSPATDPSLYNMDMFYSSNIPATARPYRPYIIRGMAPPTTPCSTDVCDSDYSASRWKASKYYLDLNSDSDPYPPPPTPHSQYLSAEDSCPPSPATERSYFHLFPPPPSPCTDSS
row,binding result,Binder
1,no binding,B1
2,no binding,B2
3,no binding,B3
4,no binding,B4

# Target: T3, LRP6 (endogenous) (human, UniProt O75581 20-1613)
# T3 construct: whole, on cells
# Test: TAP + mass spectrometry, HEK293 cells
# T3 sequence (O75581 20-1613): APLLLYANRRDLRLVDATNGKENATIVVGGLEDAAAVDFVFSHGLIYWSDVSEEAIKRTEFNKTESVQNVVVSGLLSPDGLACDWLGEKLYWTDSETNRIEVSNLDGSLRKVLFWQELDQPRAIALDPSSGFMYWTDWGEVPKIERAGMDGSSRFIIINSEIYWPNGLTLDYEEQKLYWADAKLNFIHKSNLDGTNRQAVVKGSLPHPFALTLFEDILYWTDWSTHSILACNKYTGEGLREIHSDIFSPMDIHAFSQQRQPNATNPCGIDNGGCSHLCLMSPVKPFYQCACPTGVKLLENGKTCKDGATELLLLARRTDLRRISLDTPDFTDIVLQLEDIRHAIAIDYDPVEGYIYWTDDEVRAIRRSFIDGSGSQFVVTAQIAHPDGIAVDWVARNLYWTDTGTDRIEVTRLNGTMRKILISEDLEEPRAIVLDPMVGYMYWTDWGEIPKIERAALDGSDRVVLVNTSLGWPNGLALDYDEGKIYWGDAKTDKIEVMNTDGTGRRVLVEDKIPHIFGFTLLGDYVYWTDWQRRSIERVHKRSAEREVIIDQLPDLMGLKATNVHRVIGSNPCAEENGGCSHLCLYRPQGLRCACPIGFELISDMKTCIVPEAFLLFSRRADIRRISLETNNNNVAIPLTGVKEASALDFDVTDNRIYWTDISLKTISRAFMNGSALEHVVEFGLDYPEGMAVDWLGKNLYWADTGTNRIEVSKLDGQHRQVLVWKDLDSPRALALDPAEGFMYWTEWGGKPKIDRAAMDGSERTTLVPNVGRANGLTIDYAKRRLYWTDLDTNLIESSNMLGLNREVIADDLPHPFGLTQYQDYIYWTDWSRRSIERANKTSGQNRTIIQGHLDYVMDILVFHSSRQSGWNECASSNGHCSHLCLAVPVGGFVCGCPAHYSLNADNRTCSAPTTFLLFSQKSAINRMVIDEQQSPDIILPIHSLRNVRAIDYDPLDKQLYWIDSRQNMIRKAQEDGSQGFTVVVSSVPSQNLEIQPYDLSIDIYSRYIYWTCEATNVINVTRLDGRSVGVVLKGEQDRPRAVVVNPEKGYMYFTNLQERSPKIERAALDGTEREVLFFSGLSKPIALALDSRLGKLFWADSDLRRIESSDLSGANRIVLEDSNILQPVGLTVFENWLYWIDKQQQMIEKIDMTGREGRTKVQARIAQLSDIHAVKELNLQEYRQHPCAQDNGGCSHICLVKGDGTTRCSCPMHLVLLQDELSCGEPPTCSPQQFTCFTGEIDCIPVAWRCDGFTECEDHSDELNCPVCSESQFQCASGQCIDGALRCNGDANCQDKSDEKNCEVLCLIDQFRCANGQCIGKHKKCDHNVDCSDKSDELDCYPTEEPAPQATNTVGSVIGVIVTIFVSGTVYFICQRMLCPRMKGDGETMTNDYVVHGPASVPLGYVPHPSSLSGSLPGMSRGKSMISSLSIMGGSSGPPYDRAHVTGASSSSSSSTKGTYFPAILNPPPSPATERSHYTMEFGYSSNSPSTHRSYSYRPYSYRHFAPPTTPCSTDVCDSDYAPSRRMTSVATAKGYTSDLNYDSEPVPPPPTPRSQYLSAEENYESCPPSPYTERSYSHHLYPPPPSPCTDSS
row,binding result,Binder
1,no binding,B1
2,no binding,B2
3,no binding,B3
4,no binding,B4
